B1: CPEB3 Ribozyme (parent)
chain: GGGGGCCACAGCAGAAGCGUUCACGUCGCGGCCCCUGUCAGAUUCUGGUGAAUCUGCGAAUUCUGCUGU

Variants of: B1
Test: self-cleavage, relative activity (ratio to wild type); higher = more cleavage; co-transcriptional
In the case of C54A U55G, the self-cleavage is reported as 0.796.
Variant C54A U55A has a self-cleavage of 0.743.
For C54A U55C, the self-cleavage was 0.656.
For U55C G56U, the self-cleavage was 0.686.
With C54G U64G the self-cleavage was 0.533.
Variant C54U C66G has a self-cleavage of 0.837.
In the case of C54U C66A, the self-cleavage is reported as 0.845.
Work on C54U C66U yielded a self-cleavage of 0.975.
With U55A G65A the self-cleavage was 0.581.
Variant U55A G68U has a self-cleavage of 0.992.
With U55A G68A the self-cleavage was 0.942.
In the case of C54U C63A, the self-cleavage is reported as 0.797.
Variant C54U C63G has a self-cleavage of 0.859.
With C54A U69C the self-cleavage was 1.04.
Work on C54A U69A yielded a self-cleavage of 1.01.
With C54G C57A the self-cleavage was 0.348.
C54G C57G showed a self-cleavage of 0.274.
C54G U69A gave a self-cleavage of 1.01.
Work on C54G U69G yielded a self-cleavage of 1.05.
U55C G65C gave a self-cleavage of 0.416.
C54G A59G showed a self-cleavage of 0.957.
C54G A59C gave a self-cleavage of 0.478.
Work on U55G C66U yielded a self-cleavage of 0.681.
Variant U55G C66A has a self-cleavage of 0.437.
Variant U55A U62G has a self-cleavage of 0.531.
Variant U55C A60C has a self-cleavage of 0.306.
U55C G68C gave a self-cleavage of 0.977.
U55C G68U showed a self-cleavage of 0.908.
For C54G G56C, the self-cleavage was 0.43.
In the case of C54G G56A, the self-cleavage is reported as 0.658.
With U55A C63G the self-cleavage was 0.438.
With U55A C63A the self-cleavage was 0.464.
C54U G56U showed a self-cleavage of 0.75.
Work on C54U G56A yielded a self-cleavage of 0.923.
Work on C54U G56C yielded a self-cleavage of 0.466.
U55G C57U showed a self-cleavage of 0.378.
In the case of U55G C57G, the self-cleavage is reported as 0.39.
U55A U69C showed a self-cleavage of 1.06.
Work on U55A U69A yielded a self-cleavage of 1.02.
For U55A U64G, the self-cleavage was 0.613.
In the case of U55A U64C, the self-cleavage is reported as 0.479.
C54G U55C showed a self-cleavage of 0.381.
C54G U62A gave a self-cleavage of 0.59.
C54A C66U showed a self-cleavage of 0.911.
Variant C54A C66A has a self-cleavage of 0.45.
For U53G U55C, the self-cleavage was 0.468.
For U53G U55A, the self-cleavage was 0.417.
In the case of U55A G56A, the self-cleavage is reported as 0.976.
U55A G56U gave a self-cleavage of 0.694.
U55A G56C gave a self-cleavage of 0.636.
In the case of U55C G58U, the self-cleavage is reported as 0.968.
U55C G58C showed a self-cleavage of 0.918.
U55C G58A showed a self-cleavage of 0.91.
Work on C54U U55A yielded a self-cleavage of 0.924.
Work on C54U U55C yielded a self-cleavage of 0.888.
For C54A A60G, the self-cleavage was 0.584.
With C54A A60U the self-cleavage was 0.308.
C54U U69C gave a self-cleavage of 1.07.
For C54U U69G, the self-cleavage was 1.06.
Variant U55A A59U has a self-cleavage of 0.456.
Variant U55A A59G has a self-cleavage of 0.981.
Work on U55A A59C yielded a self-cleavage of 0.394.
In the case of U55G A60C, the self-cleavage is reported as 0.296.
For C54A U64C, the self-cleavage was 0.483.
C54A U64A gave a self-cleavage of 0.543.
With U55C U67C the self-cleavage was 0.912.
For U55G G58A, the self-cleavage was 0.644.
U55C A59U showed a self-cleavage of 0.545.
C54U G58C gave a self-cleavage of 0.97.
Variant C54U G58A has a self-cleavage of 0.987.
In the case of C54A U61C, the self-cleavage is reported as 0.44.
For C54A U61G, the self-cleavage was 0.415.
In the case of C54A U61A, the self-cleavage is reported as 0.512.
For U55C U61A, the self-cleavage was 0.604.
With U55C U61C the self-cleavage was 0.407.
In the case of U55C U69A, the self-cleavage is reported as 0.971.
In the case of U55C U69G, the self-cleavage is reported as 1.01.
With U55C U69C the self-cleavage was 1.06.
Work on C54A U67A yielded a self-cleavage of 0.954.
For C54U A60U, the self-cleavage was 0.468.
Work on C54U A60C yielded a self-cleavage of 0.211.
Variant C54A G56U has a self-cleavage of 0.471.
Variant C54A G56A has a self-cleavage of 0.695.
C54A G58C gave a self-cleavage of 0.857.
Work on C54A G58U yielded a self-cleavage of 0.968.
In the case of U55A C66G, the self-cleavage is reported as 0.68.
For U55A C66A, the self-cleavage was 0.561.
Work on U55A C66U yielded a self-cleavage of 0.944.
With C54U U62A the self-cleavage was 0.901.
Variant C54U U62G has a self-cleavage of 0.951.
C54U U62C showed a self-cleavage of 1.02.
Work on U53G U62A yielded a self-cleavage of 0.688.
Variant U53G U62C has a self-cleavage of 0.619.
C54G A60G showed a self-cleavage of 0.541.
In the case of C54G A60U, the self-cleavage is reported as 0.393.
For C54G A60C, the self-cleavage was 0.282.
U55C C66G showed a self-cleavage of 0.437.
U55C C66A showed a self-cleavage of 0.342.
For U55C C66U, the self-cleavage was 0.816.
C54G G65U showed a self-cleavage of 0.587.
Work on C54G G65A yielded a self-cleavage of 0.663.
For U53G U64C, the self-cleavage was 0.764.
U53G U64G showed a self-cleavage of 0.6.
C54U C57G gave a self-cleavage of 0.407.
For C54U C57A, the self-cleavage was 0.413.
Work on C54U C57U yielded a self-cleavage of 0.385.
Work on C54G G58U yielded a self-cleavage of 0.93.
C54G G58C gave a self-cleavage of 0.829.
For U55A U67C, the self-cleavage was 0.906.
For U55C C57A, the self-cleavage was 0.367.
Work on U55G A59C yielded a self-cleavage of 0.364.
Work on U55G A59G yielded a self-cleavage of 0.81.
For U53G U61A, the self-cleavage was 0.706.
U53G U61G gave a self-cleavage of 0.681.
Work on U53G U61C yielded a self-cleavage of 0.473.
Work on C54G C66U yielded a self-cleavage of 0.821.
For U55C U62G, the self-cleavage was 0.559.
For C54U A59U, the self-cleavage was 0.883.
With C54U A59G the self-cleavage was 1.04.
With U55A U61A the self-cleavage was 0.635.
For U55A U61G, the self-cleavage was 0.6.
With C54G U67C the self-cleavage was 0.819.
For C54G U67G, the self-cleavage was 0.925.
Work on C54G G68C yielded a self-cleavage of 0.947.
C54G G68A showed a self-cleavage of 0.99.
For C54A U62C, the self-cleavage was 0.538.
In the case of C54A U62G, the self-cleavage is reported as 0.58.
With C54A G68A the self-cleavage was 0.955.
In the case of C54A C63U, the self-cleavage is reported as 0.796.
Variant C54A C63A has a self-cleavage of 0.538.
With C54A C63G the self-cleavage was 0.445.
Work on C54G U61C yielded a self-cleavage of 0.429.
In the case of C54U, the self-cleavage is reported as 1.
C54A showed a self-cleavage of 0.944.
Variant C54G has a self-cleavage of 0.951.
For C54U U61A, the self-cleavage was 0.933.
C54U U61G showed a self-cleavage of 0.779.
U53G G68A gave a self-cleavage of 0.909.
With U55A G58C the self-cleavage was 0.993.
Variant U55A G58U has a self-cleavage of 0.988.
Variant C54A C57A has a self-cleavage of 0.378.
Work on C54A C57G yielded a self-cleavage of 0.338.
Variant C54A C57U has a self-cleavage of 0.377.
Variant U55G C63G has a self-cleavage of 0.399.
U55G C63A gave a self-cleavage of 0.345.
For C54U G65C, the self-cleavage was 0.561.
C54U G65A gave a self-cleavage of 0.884.
Work on U55G G56A yielded a self-cleavage of 0.963.
C54U G68C showed a self-cleavage of 1.02.
Work on C54U G68A yielded a self-cleavage of 1.02.
Variant C54U G68U has a self-cleavage of 1.06.
Work on U55C U64C yielded a self-cleavage of 0.662.
With U55C U64G the self-cleavage was 0.531.
In the case of U55C C63G, the self-cleavage is reported as 0.532.
U55C C63U gave a self-cleavage of 0.85.
Variant U55C C63A has a self-cleavage of 0.464.
Work on C54A G65A yielded a self-cleavage of 0.629.
With C54A G65U the self-cleavage was 0.519.
C54U U67G showed a self-cleavage of 0.987.
With C54U U67C the self-cleavage was 1.01.
For C54U U67A, the self-cleavage was 0.993.
For C54G C63G, the self-cleavage was 0.514.
For C54G C63U, the self-cleavage was 0.797.
With U53G U69C the self-cleavage was 1.04.
With U53G U69G the self-cleavage was 1.02.
For U55A A60G, the self-cleavage was 0.615.
Work on U55A A60U yielded a self-cleavage of 0.298.
